Test results reported in a protein production outcome set (Wang et al. 2014).

Assay: label from the status in PepcDB records
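Further: failed if final PepcDB status was selected cloned or expressed and not failed if soluble or beyond.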

MLNTSDIGKVFPSVTAVVEKGRLRFFAKAIGENNPIYTDEAAAKDAGYESLPMPPTFFFSLKMDVPNPFENYEKVGASLAKILHANQAFVYHQSVVAGDSLTFESHIADIYDKKAGALEFLVEKTKVSNQRGQHVADMTTTLVVRNLEHHHHHH
protein production: failed

ASEGEKHITVTVIHGDQTENVFEFDTDAKYLGEVLESENLVDGESGEYGLFITTVDEETADDSKQQWWCITKGGEQVNTSADQTPVSDGDAFELTLKEGY
protein production: not failed

MPVLVLLLAVGTGCVSTGTNPVSGNTRAYGYSWQEEVTMGQKADKQIQSQYGVYDDEELQEYVDGVAQEVLAESHMRRPDTPERFRNTEFEFRVLDSPIINAFALPGGYVYVTRGLVAHLNNEAQLAMVLGHEIGHVAARHASQQAARQKFTQGLLLSGAVAGQVAFGGNVAENVMGLGGQAAQLLSLSYSRDNERESDRLGVEYAVRAGYDGAEGAAFFESLERVREQGGQSIPTWQSTHPDPGARQQTIPELAQTWRKKVDRPATTIDQDAYYNALEGTVLGKNPRQGFVEEGVFYQPELAFRFSIPSRWDVQNQPQQVALVQPDQSAYMIFTFSDAETPDAAARKFAGQDGLSVLDRQSTSVNGNDARRVLAEGKTQQGQVVRLLTYFIAYGDNVYQFQGTTSADRYDAYRPDFERTMTSFARLTDSEKLNRQPARIAIQAADREGAFRSFVDTDALPSDMTEEDLAIINQLDVDQVVAPDRPLKLPN
protein production: failed

WKPELDELARRENFAQQMGGIDKVKRQHDQGRLTVRERIDRLSDAGSFHEIGAVAGLGEYDANGELINLTPANCVFGRAKIDGRTVVVVGDDFTVRGGSADASIHAKPQMAEEMAHDYRLPIIRVIEGSGGGGSVRTIESKGAANLPGGVDGTRWYWYTTAN
protein production: failed

MKVKKWVTQDFPMVEESATVRECLHRMRQYQTNECIVKDREGHFRGVVNKEDLLDLDLDSSVFNKVSLPDFFVHEEDNITHALLLFLEHQEPYLPVVDEEMRLKGAVSLHDFLEALIEALAMDVPGIRFSVLLEDKPGELRKVVDALALSNINILSVITTRSGDGKREVLIKVDAVDEGTLIKLFESLGIKIESIEKEEGF
protein production: not failed

MLAFFIFLSTLVLLFWRPWNLPIWVFSSLGAFFVFIFQLVDFKDACFVFSLVWDSSLTLVGLIILSFSLEALGFFDFIASKILYFSREKNQEKIYISTKKMMLFLLIFVFFLSAFFANDGAILIITPIIIALFSTLKDCKNHAFILSSFLLSLSFLCDASSNALVISNLTNIITANYFKIEFLEFAKNMFLPNFFVLLSTIVTVFVLYVRVLPKRLEFKLIKKEQISLKLFFLCIVFLFLFVISFFIGEIFNIKISFFALLWAGIFWLIILKIQGKKSIKILFEAPYGVLLFSFGLYMVVFALHKIGVSEILVKSYAFLMQDKSGIFGVALISAFGSSVFNNLPMVLIGDLALKEYFENFSFDSLMIYAHLLGVNIGPKLTPIGSLATLLWLGVLARKGINISFWQYCKFGFLITLPVLVFSLFALIV
protein production: failed

MEGLLIDYVQPGSIAEELEIEAGDRLVAINGQDLRDIIDFSFYAHDEELALEIVKPSGDHWEAEIERDGDEPLGLVFAPPVPAQCGNKCVFCFVHQLPKGLRRPLYVKDEDYRLSFLYGNYVTLSNIRRGDLDRIVAQRLSPLYISVHATNPALRERLLGRSEILPILDLMRELAAARIVMHSQIVLCPGLNDGVELEKTVRDLAGLHPWVESLAIVPIGLTKHRRGLPALEPVTASYAETFVQNWQPAAERLERELGAPFLFIADEFYIKAGLPFPPLETYGDLPQIENGVGMIPLFLDESERVLKKARKGKPVTVTVVTGESPYRYLAAFLERLSVRTGATFKPVAVHNRLFGESVTVTGLVAGSDIVEELSGRDLGDAVLVPDVMLKEGEGIFLDDLSVDGLGKSLGTRVLVVEATPQGVVDALRRVRSMLEHHHHHH
protein production: failed

MHTEQALHTRIADIVESIILKKVTPDTALISSGLVDSLAAVDITLAVESEYGCSIPAPEIAEHLQSVRTLAGYVAANSQ
protein production: failed

SAAATGPSFWLGNETLKVPLALFALNRQRLCERLRKNPAVQAGSIVVLQGGEETQRYCTDTGVLFRQESFFHWAFGVTEPGCYGVIDVDTGKSTLFVPRLPASHATWMGKIHSKEHFKEKYAVDDVQYVDEIASVLTSQKPSVLLTLRGVNTDSGSVCREASFDGISKFEVNNTILHPEIVECRVFKTDMELEVLRYTNKISSEAHREVMKAVKVGMKEYELESLFEHYCYSRGGMRHSSYTCICGSGENSAVLHYGHAGAPNDRTIQNGDMCLFDMGGEYYCFASDITCSFPANGKFTADQKAVYEAVLRSSRAVMGAMKPGVWWPDMHRLADRIHLEELAHMGILSGSVDAMVQAHLGAVFMPHGLGHFLGIDVHDVGGYPEGVERIDEPGLRSLRTARHLQPGMVLTVEPGIYFIDHLLDEALADPARASFLNREVLQRFRGFGGVRIEEDVVVTDSGIELLTCVPRTVEEIEACMAGCDKAFTPFSGPK
protein production: failed

MNRLKNMSKYSDAKELASLTLGKKTEYANQYDPSLLQPVPRSLNRNDLHLSATLPFQGCDIWTLYELSWLNQKGLPQVAIGEVSIPATSANLIESKSFKLYLNSYNQTRFASWDEVQTRLVHDLSACAGETVTVNVKSLNEYTAEPIVTMQGECIDDQDIEIANYEFDDALLQGAAQGEEVSEVLHSHLLKSNCLITNQPDWGSVEIAYHGAKMNREALLRYLVSFREHNEFHEQCVERIFTDIMRYCQPQSLTVYARYTRRGGLDINPFRSSHQSAPNHNQRMARQ
protein production: not failed

MFQPHLPVRLPCYDLAPITSFTLGRSLRLRTSGTPGFHGLTGGVYKARERIHRAMADARLLANPASRSRVADFDPN
protein production: failed

RQLVSGRLEVAADGPHLVMPMLARLRASYPGITVNLRLGNAQETLAALLSEHVDVAVLTEVEARPGLFLEELVNSRICALLPRQHPWCERNEGVPLEELDQQIMVLREPGSITRRTFDRACAEQGVQPRVLLELDSREAVT
protein production: failed

MMYVTVMPVFLAGVANRFFCKSDILAWTYQPIDGGFTMSDGKRILGANKTWKGFWGMITLTTFCQVIWGFILGIIPHLLTFSLVKSYHNDIFFNLFIGFLMGSAYVLCELPNSFIKRRFNVSPGQLASGNARWVFLFADQIVPFLGSIAVVAIFSPMTFSYYVGYVLLAAITLFAINSLILFVEMKRK
protein production: failed

MIRERSINLGHQVEGAIFTRHNHIVSVDGDGILSFQNNITKVKPNEAIFIPSKVMVRFSFNSNENKSIKVSLYHINGINLNCKQDKVTSLINAYIEVEKLNLTNRETIIELIGSRLEKIKNNRVLYNYDPLEKKIYRLVSKDLKKKWSLEEVCKLTYTSKSTLNRKLKDNQTSMGQIISNARLDYATILITNTSLSVDEISMLSGFNSTSYFCKKFKESHGFSPKQYRKLLAYNQVPLNRI
protein production: failed

EKTVRVVINFKKTQKTIVRVSPHASLQELAPIICSKCEFDPLHTLLLKDYQSQEPLDLTKSLNDLGLRELYAMDVNRE
protein production: not failed

MDKKAMWDRFYTENGSKGQFKNFEWFFGFPSVKDLVLPALQAMSCSHSGPLHILDMGCGTSALGPCIYSTSPCAVRVTCADISPVAVKLMEEHTKSTSTQPCNPSSALVFLELDCTQMTGHFKSRSLDLILDKGTTDALVRSKEGQVKAGQILRQSLQVLRPSGSFLQFSDEDPDARLIWLEREVQGAEVTADVGVQEIGELRGVSYFCYQISPRSRPHS
protein production: failed

MGSSHHHHHHSSGRENLYFQGHMAATAREDGASGQERGQRGCEHYDRGCLLKAPCCDKLYTCRLCHDNNEDHQLDRFKVKEVQCINCEKIQHAQQTCEECSTLFGEYYCDICHLFDKDKKQYHCENCGICRIGPKEDFFHCLKCNLCLAMNLQGRHKCI
protein production: not failed

MVAVTYSPGPHLERFLASLSLATERPVSVLLADNGSTDGTPQAAVQRYPNVRLLPTGANLGYGTAVNRTIAQLGEMAGDAGEPWVDDWVIVANPDVQWGPGSIDALLDAASRWPRAGALGPLIRDPDGSVYPSARQMPSLIRGGMHAVLGPFWPRNPWTTAYRQERLEPSERPVGWLSGSCLLVRRSAFGQVGGFDERYFMYMEDVDLGDRLGKAGWLSVYVPSAEVLHHKAHSTGRDPASHLAAHHKSTYIFLADRHSGWWRAPLRWTLRGSLALRSHLMVRRSRRRKLKLVEGRH
protein production: failed

MKPICIIPARSGSKGLPDKNMLFLSGKPMIFHTIDAAIESGMFDKKDIFVSTDSELYREICLERGISVVMRKPELSTDQATSYDMLKDFLSDYEDNQEFVLLQVTSPLRKSWHIKEAMEYYSSHDVDNVVSFSEVEKHPSLFTTLSDEGYAIDMVGADKGYRRQDLQPLYYPNGAIFISNKETYLREKSFFTSRTYAYQMAKEFSLDVDTRDDFIHVIGHLFFDYAIREKENKVFYKEGYSRLFNREASKIILGDSKTISTSLESYHNYSQGGVTLATMLENLPNFLTANVTEAFVSIGVNDLITGYSVEEIFSNFQKLYSLLAENKIKMRLTTIAYTLFRETVNNADIEKINQWLTEFCYQNQIPLLDINRFLSKDGNLNYHLTSDGLHFTQEANDLLQSQYQLFVDEVKTLLEHHHHHH
protein production: not failed

MTVAYIAIGSNLASPLEQVNAALKALGDIPESHILTVSSFYRTPPLGPQDQPDYLNAAVALETSLAPEELLNHTQRIELQQGRVRKAERWGPRTLDLDIMLFGNEVINTERLTVPHYDMKNRGFMLWPLFEIAPELVFPDGEMLRQILHTRAFDKLNKW
protein production: failed

YAMSIYAAQHDVRIVNPYFVPTSSIRKALKRALNRGTKVEIMISSKSDIPFTPDASLYAVQKLMKKGAMIYLYNGGFHHSKIMMVDDLFCTVGTANLNSRSLRYDYETNAFIFDKDITQQLNDVFEADMLHCTRLTPEMWKQKSAWKKFKCWFANLFTPFL
protein production: failed

MTPGTIFLSSQVLMPSEDDTKRFHLAEGQELFYLERVRTADGQPIVYCIDKIPMNILPNSFSHQQESMFDLLEKNSGSVISYAVTDIEPIGYHDTISPVLECDPETALLLLKQTHYDQHDKPVLYSLNYFRA
protein production: not failed

MLVGPAPTTDGSAENTLNEKRLVHGSIAFWLGPRAPQTKTHRWTVYVRGARDPLEDLSLYIQKVEFVLHESFADPVRVVKEPPFCLTEHGWGEFEVIIRLFPISDPDKPVEMYHPLRLFPSVGQELTEKPVVSEHLDVLVFSQPAPEVERALHRSDVARMPSDCWGDLMPLFGGDLHQVEEEDLRKVQQARERVRQQIQATRLQYEALTAELARARTHALHRELS
protein production: not failed

MTKTKFEKVLLIVNPKAGQGDLHTNLTKIVPPLAAAFPDLHILHTKEQGDATKYCQEFASKVDLIIVFGGDGTVFECTNGLAPLEIRPTLAIIPGGTCNDFSRTLGVPQNIAEAAKLITKEHVKPVDVAKANGQHFLNFWGIGLVSEVSNNIDAEEKAKLGKIGYYLSTIRTVKNAETFPVKITYDGQVYEDEAVLVMVGNGEYLGGIPSFIPNVKCDDGTLDIFVVKSTGIQAFKDYIGKKLFEDSNENDIFHVKAKSIHIETEEEKEVDTDGESSLHTPCQIELLQGHFTMIYNPAVV
protein production: not failed
